Experimental data reported in US20200347127A1 (CRESCENDO BIOLOGICS, published 2020).
Changes are numbered by the printed parent chain. Names may count otherwise. Read-outs that look alike come from different tables or passages of the source.

How the values were obtained:
recombinant human IL-17A [1] = molecular target: T1, recombinant human IL-17A (human, UniProt Q16552 24-155); assay: BIAcore single-cycle kinetics, ligand Il-17, 1:1 binding fit, 25 C (n=1 per legend)
T1 construct: Bought recombinant protein (Peprotech AF-200-17); also called Peprotech AF-200-17
T1 sequence (Q16552 24-155): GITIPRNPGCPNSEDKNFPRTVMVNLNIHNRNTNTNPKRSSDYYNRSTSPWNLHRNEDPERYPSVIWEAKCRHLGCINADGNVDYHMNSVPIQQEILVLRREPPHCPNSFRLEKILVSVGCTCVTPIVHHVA

recombinant human IL-17A [2] = molecular target: T1, recombinant human IL-17A; assay: SPR (BIAcore T200), IL-17A coupled to CM5 chip, single-cycle kinetics
recombinant human IL-17A [3] = molecular target: T1, recombinant human IL-17A; assay: competition ELISA, IL-17A binding to coated IL-17RA-Fc
recombinant human IL-17A [4] = molecular target: T1, recombinant human IL-17A; assay: cell-based or functional assay
recombinant human IL-17A [5] = molecular target: T1, recombinant human IL-17A; assay: BIAcore single-cycle kinetics on IL-17A (n=2 per legend)
recombinant human IL-17A [6] = molecular target: T1, recombinant human IL-17A; assay: cell-based or functional assay; remark: listed apart in the source
recombinant human IL-17A [7] = molecular target: T1, recombinant human IL-17A; assay: SPR (BIAcore T200), IL-17A coupled to CM5 chip, single-cycle kinetics; remark: listed apart in the source
recombinant human IL-17A [8] = molecular target: T1, recombinant human IL-17A; assay: competition ELISA, IL-17A binding to coated IL-17RA-Fc; remark: listed apart in the source
recombinant human IL-17A [9] = molecular target: T1, recombinant human IL-17A; assay: cell-based or functional assay; remark: listed apart in the source
recombinant human IL-17A [10] = molecular target: T1, recombinant human IL-17A; assay: BIAcore single-cycle kinetics on IL-17A (n=2 per legend); remark: listed apart in the source
recombinant human IL-17A [11] = molecular target: T1, recombinant human IL-17A; assay: BIAcore single-cycle kinetics, ligand Il-17, 1:1 binding fit, 25 C (n=1 per legend); remark: listed apart in the source
recombinant human IL-17A [12] = molecular target: T1, recombinant human IL-17A; assay: cell-based or functional assay; remark: listed apart in the source
recombinant human IL-17A [13] = molecular target: T1, recombinant human IL-17A; assay: BIAcore single-cycle kinetics, ligand Il-17, 1:1 binding fit, 25 C (n=1 per legend); remark: listed apart in the source
recombinant human IL-17A [14] = molecular target: T1, recombinant human IL-17A; assay: cell-based or functional assay; remark: listed apart in the source
recombinant human IL-17A [15] = molecular target: T1, recombinant human IL-17A; assay: BIAcore single-cycle kinetics on IL-17A (n=2 per legend); remark: listed apart in the source
recombinant human IL-17A [16] = molecular target: T1, recombinant human IL-17A; assay: SPR (BIAcore T200), IL-17A coupled to CM5 chip, single-cycle kinetics; remark: listed apart in the source
recombinant human IL-17A [17] = molecular target: T1, recombinant human IL-17A; assay: SPR (BIAcore)
recombinant human IL-17A [18] = molecular target: T1, recombinant human IL-17A; assay: BIAcore single-cycle kinetics on immobilised IL-17A, 1:1 binding fit
recombinant human IL-17A [19] = molecular target: T1, recombinant human IL-17A; assay: competition ELISA, IL-17A binding to coated IL-17RA-Fc; FIG. 9A
recombinant human IL-17A [20] = molecular target: T1, recombinant human IL-17A; assay: VH screening as in examples 7 and 8
IL-17C [21] = molecular target: T2, IL-17C (UniProt Q9P0M4 19-197, limits assumed); assay: specificity ELISA on coated antigen, VH concentration not given
T2 sequence (looked up): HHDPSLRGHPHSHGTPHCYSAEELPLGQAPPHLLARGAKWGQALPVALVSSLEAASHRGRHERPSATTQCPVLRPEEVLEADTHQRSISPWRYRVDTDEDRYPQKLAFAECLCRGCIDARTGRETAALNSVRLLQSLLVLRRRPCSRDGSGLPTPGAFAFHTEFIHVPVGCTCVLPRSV

IL17E = molecular target: T3, IL17E; assay: as above
T3 construct: also called IL-25
T3 chain: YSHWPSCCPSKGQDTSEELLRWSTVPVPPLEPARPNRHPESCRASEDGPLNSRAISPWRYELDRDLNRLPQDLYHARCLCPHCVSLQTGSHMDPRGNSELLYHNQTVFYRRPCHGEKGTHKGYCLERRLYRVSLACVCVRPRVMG

IL-17F [22] = molecular target: T4, IL-17F (UniProt Q96PD4 31-163, limits assumed); assay: as above
T4 sequence (looked up): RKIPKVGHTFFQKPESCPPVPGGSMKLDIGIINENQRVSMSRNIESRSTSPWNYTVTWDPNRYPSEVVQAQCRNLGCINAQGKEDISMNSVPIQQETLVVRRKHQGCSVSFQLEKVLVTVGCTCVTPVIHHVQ

IL-17C [23] = molecular target: T2, IL-17C; assay: as above; remark: listed apart in the source
recombinant IL-17RA-Fc = molecular target: T5, recombinant IL-17RA-Fc (UniProt Q96F46 33-320); assay: as above
T5 construct: Bought reagent; also called R & D systems cat #177-IR-100; receptor; not shown: Fc part of the bought fusion, not described

IL-17F [24] = molecular target: T4, IL-17F; assay: as above; remark: listed apart in the source
murine IL-17A = molecular target: T6, murine IL-17A (murine, UniProt Q62386 26-158, limits assumed); assay: as above
T6 sequence (looked up): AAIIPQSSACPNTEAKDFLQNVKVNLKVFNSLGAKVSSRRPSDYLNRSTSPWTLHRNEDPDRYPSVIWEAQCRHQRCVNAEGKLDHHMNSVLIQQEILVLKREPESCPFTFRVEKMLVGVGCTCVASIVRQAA

recombinant human IL-17A [25] = molecular target: T1, recombinant human IL-17A; assay: BIAcore single-cycle kinetics on immobilised IL-17A, 1:1 binding fit; remark: listed apart in the source
recombinant human IL-17A [26] = molecular target: T1, recombinant human IL-17A; assay: BIAcore single-cycle kinetics, ligand Il-17, 1:1 binding fit, 25 C (n=1 per legend); remark: listed apart in the source
recombinant human IL-17A [27] = molecular target: T1, recombinant human IL-17A; assay: BIAcore single-cycle kinetics on IL-17A (n=2 per legend); remark: listed apart in the source

B1: VH 3.2.1 (clone 3.2 expressed from phagemid vector: with linker residues and His tag) (VHH)
VHH: QVQLVQSGAEVKKPGASVKVSCKASGYNADAYYINWVRQAPGQGLEWMGSIKPNTGATKYAQKFQGRVTITRDTSISTAYMELSRLRSDDTAVYYCASLDRDTWYPHSYAGWFDAWGQGTLVTVSS
notes: Human single VH domain
- Kd (recombinant human IL-17A [1]): 0.15 nM
- koff (recombinant human IL-17A [1]): 0.000349 s⁻¹
- kon (recombinant human IL-17A [1]): 2.28e+06 M⁻¹ s⁻¹
- Kd (recombinant human IL-17A [2]): 0.23 nM
- koff (recombinant human IL-17A [2]): 0.000252 s⁻¹
- kon (recombinant human IL-17A [2]): 1.1e+06 M⁻¹ s⁻¹
- IC50 (recombinant human IL-17A [3]): 2.5 nM
- Cell assay IC50 (nM), IL-17A-induced IL6 release from HT1080 (recombinant human IL-17A [4]): 2.5 nM
- Kd (recombinant human IL-17A [5]): 0.212 nM

B2: Family 2 (clone 2.1) (VHH)
VHH: QVQLVESGGGLVQPGGSLRLSCAASGFTFSSYGMGWVRQAPGKGLEWVAKIKQDGSEKDYVDSVKGRFTISRDNAKKSLFLQMNSLRAEDTAVYYCARESIFGIPEDWGQGTLVTVSS
notes: Human single VH domain; also called VH 2.1.1
- Cell assay IC50 (nM), IL-17A-induced IL6 release from HT1080 (recombinant human IL-17A [6]): 8.3 nM
- Kd (recombinant human IL-17A [7]): 2 nM
- koff (recombinant human IL-17A [7]): 0.00247 s⁻¹
- kon (recombinant human IL-17A [7]): 1.22e+06 M⁻¹ s⁻¹
- IC50 (recombinant human IL-17A [8]): 32 nM

B3: Family 5 (clone 5.1) (VHH)
VHH: EVQLVESGGGLVQPGGSLRLSCAASGFTFSSYWMSWVRQAPGKGLEWVANIKQDGSEKYYVDSVKGRFTISRDNAKNSLYLQMNSLRAEDTAVYYCAHGQWPFFDYWGQGTMVTVSS
notes: Human single VH domain
- Kd (recombinant human IL-17A [7]): 166 nM
- koff (recombinant human IL-17A [7]): 0.0505 s⁻¹
- kon (recombinant human IL-17A [7]): 304000 M⁻¹ s⁻¹
- IC50 (recombinant human IL-17A [8]): 337 nM

B4: 3.2-2(G4S)-1.2 (VHH)
VH-linker-VH: QVQLVQSGAEVKKPGASVKVSCKASGYNADAYYINWVRQAPGQGLEWMGSIKPNTGATKYAQKFQGRVTITRDTSISTAYMELSRLRSDDTAVYYCASLDRDTWYPHSYAGWFDAWGQGTLVTVSSAAGGGGSGGGGSEVQLVESGGGLVQPGGSLRLSCAASGFTFSSYSMYWVRQAPGKGLEWVAEIKQDGSVQYYVSDVKGRFTISRDNAKNSLYLQMNSLRAEDTAVYYCAKGEILPLYFDYWGQGTLVTVSS
notes: also called Biparatopic: 3.2-2(G4S)-1.2
- EC50 (recombinant human IL-17A [9]): 1070 pM
- Kd (recombinant human IL-17A [10]): 0.045 nM
- Kd (recombinant human IL-17A [11]): 0.0429 nM
- koff (recombinant human IL-17A [11]): 4.75e-05 s⁻¹
- kon (recombinant human IL-17A [11]): 1.1e+06 M⁻¹ s⁻¹

B5: Clone 1.2 (VHH)
VHH: EVQLVESGGGLVQPGGSLRLSCAASGFTFSSYSMYWVRQAPGKGLEWVAEIKQDGSVQYYVSDVKGRFTISRDNAKNSLYLQMNSLRAEDTAVYYCAKGEILPLYFDYWGQGTLVTVSS
- EC50 (read off the curve) (recombinant human IL-17A [12]): ~800 pM
- Kd (recombinant human IL-17A [13]): 0.675 nM
- koff (recombinant human IL-17A [13]): 2.26e-05 s⁻¹
- kon (recombinant human IL-17A [13]): 33500 M⁻¹ s⁻¹
- Cell assay IC50 (nM), IL-17A-induced IL6 release from HT1080 (recombinant human IL-17A [14]): 0.4 nM
- Kd (recombinant human IL-17A [15]): 0.57 nM
- Kd (recombinant human IL-17A [16]): 0.555 nM
- koff (recombinant human IL-17A [16]): 0.000485 s⁻¹
- kon (recombinant human IL-17A [16]): 874000 M⁻¹ s⁻¹

B6: VH 1.3.2 (clone 1.3 with C terminal extension and His tag) (VHH)
VHH: B5 VHH with S62D, D63S
notes: Human single VH domain
- Kd (recombinant human IL-17A [17]): 0.63 nM
- koff (recombinant human IL-17A [18]): 0.000501 s⁻¹
- kon (recombinant human IL-17A [18]): 799000 M⁻¹ s⁻¹

B7: VH 1.6.1 (clone 1.6 expressed from phagemid vector: with linker residues and His tag) (VHH)
VHH: B5 VHH with V57E, S62D, D63S
notes: Human single VH domain
- Kd (recombinant human IL-17A [17]): 0.63 nM
- IC50 (recombinant human IL-17A [19]): 5 nM
- Cell assay IC50 (nM), IL-17A-induced IL6 release from HT1080 (recombinant human IL-17A [14]): 1.3 nM
- fold improved affinity over clone 1.1 (recombinant human IL-17A [20]): ≤ 10 fold
- binding result (IL-17C [21]): no binding
- binding result (IL17E): no binding
- binding result (IL-17F [22]): no binding
- Kd (recombinant human IL-17A [16]): 0.627 nM
- koff (recombinant human IL-17A [16]): 0.000482 s⁻¹
- kon (recombinant human IL-17A [16]): 770000 M⁻¹ s⁻¹

B8: VH 1.7.1 (clone 1.7 expressed from phagemid vector: with linker residues and His tag) (VHH)
VHH: B5 VHH with E1Q, S33G, E50K, K52E, V57E, Q58E, S62D, D63S, N77K
notes: Human single VH domain
- IC50 (recombinant human IL-17A [19]): 7 nM
- Cell assay IC50 (nM), IL-17A-induced IL6 release from HT1080 (recombinant human IL-17A [14]): 2 nM
- fold improved affinity over clone 1.1 (recombinant human IL-17A [20]): ≤ 10 fold
- Kd (recombinant human IL-17A [16]): 0.609 nM
- koff (recombinant human IL-17A [16]): 0.000466 s⁻¹
- kon (recombinant human IL-17A [16]): 765000 M⁻¹ s⁻¹

B9: VH 1.10.1 (clone 1.10 expressed from phagemid vector: with linker residues and His tag) (VHH)
VHH: B5 VHH with S33R, E50S, K52E, V57E, Q58E, S62D, D63S, N77K, Y80F
notes: Human single VH domain
- Kd (recombinant human IL-17A [17]): 1 nM
- binding result (IL-17C [23]): no binding
- binding result (recombinant IL-17RA-Fc): no binding
- binding result (IL-17F [24]): no binding
- binding result (murine IL-17A): binds
- IC50 (recombinant human IL-17A [19]): 4 nM
- koff (recombinant human IL-17A [25]): 0.000755 s⁻¹
- kon (recombinant human IL-17A [25]): 700000 M⁻¹ s⁻¹
- Cell assay IC50 (nM), IL-17A-induced IL6 release from HT1080 (recombinant human IL-17A [14]): 1.9 nM
- fold improved affinity over clone 1.1 (recombinant human IL-17A [20]): ≤ 10 fold
- binding result (IL17E): no binding
- Kd (recombinant human IL-17A [16]): 1.46 nM
- koff (recombinant human IL-17A [16]): 0.000966 s⁻¹
- kon (recombinant human IL-17A [16]): 664000 M⁻¹ s⁻¹

B10: 3.2-6(G4S)-1.2 (VHH)
VH-linker-VH: QVQLVQSGAEVKKPGASVKVSCKASGYNADAYYINWVRQAPGQGLEWMGSIKPNTGATKYAQKFQGRVTITRDTSISTAYMELSRLRSDDTAVYYCASLDRDTWYPHSYAGWFDAWGQGTLVTVSSAAGGGGSGGGGSGGGGSGGGGSGGGGSGGGGSEVQLVESGGGLVQPGGSLRLSCAASGFTFSSYSMYWVRQAPGKGLEWVAEIKQDGSVQYYVSDVKGRFTISRDNAKNSLYLQMNSLRAEDTAVYYCAKGEILPLYFDYWGQGTLVTVSS
notes: also called Biparatopic 3.2-6(G4S)-1.2
- Kd (recombinant human IL-17A [26]): 0.0198 nM
- koff (recombinant human IL-17A [26]): 3.02e-05 s⁻¹
- kon (recombinant human IL-17A [26]): 1.52e+06 M⁻¹ s⁻¹
- Kd (recombinant human IL-17A [27]): 0.02 nM
- EC50 (recombinant human IL-17A [9]): 923 pM
